# Laboratory results from the supplement of paper PMC9170038.
# Key:
# MS2 coat protein [1] = assay: apparent KD of MS2 coat protein; designed switch direction (-1 OFF switch, 1 ON switch): -1; higher = weaker reporter binding; conditions: Eterna round: R98
# Description: (§1)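 RNA-MaP: designed FMN/MS2 RNA switches (84 nt design region) are transcribed on-chip within common flanks and titrated with SNAP-549-labelled MS2 coat protein (about 1-3000 nM) in 100 mM Tris pH 7.5, 80 mM KCl, 4 mM MgCl2, without or with 200 uM FMN. Median apparent KD per design; activation ratio = KD,OFF / KD,ON.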
# MS2 coat protein [2] = assay: apparent KD of MS2 coat protein; higher = weaker reporter binding; conditions: Eterna round: R101
# Description: as §1
Sequence,apparent KD of MS2 coat protein (MS2 coat protein [1]; input ligand: FMN 200 uM) [µM],apparent KD of MS2 coat protein (MS2 coat protein [1]; input ligand: none) [µM],apparent KD of MS2 coat protein (MS2 coat protein [2]; input ligand: FMN 200 uM) [µM],apparent KD of MS2 coat protein (MS2 coat protein [2]; input ligand: none) [µM]
AAAUUUAACGAAGGAUAUGCUGACAUGAGGAUCACCCAUGUGUGCCUUGUGUUGCUGCCUCGGGAGCAGAAGGUCGUAUACAUA [Ex NG2 #11],0.613,0.454,–,–
ACAUGGAAUCGAGGAUAUGACGCGGAAACGAAGUCAGAAGGCGAAAAUUUAACUCGAUAAUACAUGAGGAUCACCCAUGUAAUU [AK-NGROCr2-ExNG1-3],0.0246,0.0197,–,–
AGACUCAGAUGGUGCCAGCUUGCACAUGAGGAUCACCCAUGUCAGGAUAUCUUCGCUCCGAGAGAAGAGAAGGGACAAGAAUUU [Soedon],0.234,0.0794,–,–
AGAUGACAAAGUCAUCUCGCGCAGACAUGAGGAUCACCCAUGUAGGAUAUACUACUCAAAGAGUAGUAGAAGGACAUGUGUCUU [Ex NG2 #57],0.111,0.0325,–,–
CCAUAAAAGAUCCAAAAUUACAACAUGAGGAUCACCCAUGUGCAGGAUAUCGUGAAAGUAAAGUACGAGAAGGGCAGACACUGC [salish99_ExNG3_r2_008],0.139,0.154,–,–
GCACUGGAUGUAGGAUAUCAGGACGAUAAGUCCUGAGAAGGACAUGAGGAUCACCCAUGUGAUAAUACCAGUGCAAAUAAUAUA [Denovo Exng1 26],0.119,0.0195,–,–
GGCAGCCUUCAGAAGGGAGUGCGAUAAUCGCACUCAGGAUAUGAGGAUCACCCAUAUCAAGCUGCCACUGAGGCAAAGCCUCAG [#SharedSequence - IEx NG 2-1] (puzzle (switch architecture): Inverted Exclusion NG 1),–,–,0.0121,0.0108
GUCAGCUCGUGAGGAUAUACAUCACUGCUUCGGCAGUGUAUUAAGAUCACAUGAGGAUCACCCAUGUAGAAGGCACGAGCUGAU [#SameSwitchNG2InvertedNG3 NG2 A1] (puzzle (switch architecture): Exclusion NG 2),–,–,0.201,0.0146
GUGAGGCAUCUACACGCUCGGGCCGAGGAUAUACAUGAGGAUCACCCAUGUAACAGUGCGGUCAUGUAGAAGGCGGCUAAAUUA [Rianrare] (puzzle (switch architecture): Small Loop Exclusion NG 3),–,–,0.0423,0.0111
UAUAUAAUUAAGAGCUGGAAAAUCACAUGAGGAUCACCCAUGUAGGAUAUCAGCACGAUAAGUGCUGAGAAGGACUACCAGCUC [Denovo 79],0.0158,0.02,–,–
UCAUACAUGACAUGACAUGACAUGAGGAUCACCCAUGUUUACAAGGAUAUGUUGAUGAAACAUCAACAGAAGGUGUAAUGGACU [xclu_NG3_cac7],0.232,0.136,–,–
UCGAACGGAAACAAAGUCGAUAGACAUGAGGAUCACCCAUGUCAGGAUAUGCCUACUAAAAGUAGGCAGAAGGGACGCGUUCGA [Contusion 7 - Jieux - Exclusion NG 3],0.018,0.0208,–,–
UGCUAACUGUAGAAGGGUGACAUGAGGAUCACCCAUGUGCACGCGCGAUUUACGGCGCGCGUGCCACAGGAUAUACAGUUUAGU [Atquar] (puzzle (switch architecture): Inverted Same State NG 2),–,–,0.0343,0.0327
UUGGACGUCGUAGGAUAUGUAGGAUAUUCCUACAUGAGGAUCACCCAUGUUUACAUGGAAGAAGGACAGAAGGACGAUGUCCAU (puzzle (switch architecture): Same State NG 2),–,–,0.00573,0.572
